Source: publication PMC6620310, “A ubiquitin-like domain is required for stabilizing the N-terminal ATPase module of human SMCHD1” (Communications Biology, 2019)

B1: SMCHD1(24–580) wild-type [human] / itself (parent complex)
chain: GHRTVYLFDRREKESELGDRPLQVGERSDYAGFRACVCQTLGISPEEKFVITTTSRKEITCDNFDETVKDGVTLYLLQSVNQLLLTATKERIDFLPHYDTLVKSGMYEYYASEGQNPLPFALAELIDNSLSATSRNIGVRRIQIKLLFDETQGKPAVAVIDNGRGMTSKQLNNWAVYRLSKFTRQGDFESDHSGYVRPVPVPRSLNSDISYFGVGGKQAVFFVGQSARMISKPADSQDVHELVLSKEDFEKKEKNKEAIYSGYIRNRKPSDSVHITNDDERFLHHLIIEEKEKDSFTAVVITGVQPEHIQYLKNYFHLWTRQLAHIYHYYIHGPKGNEIRTSKEVEPFNNIDIEISMFEKGKVPKIVNLREIQDDMQTLYVNTAADSFEFKAHVEGDGVVEGIIRYHPFLYDRETYPDDPCFPSKLKDEDDEDDCFILEKAARGKRPIFECFWNGRLIPYTSVEDFDWCTPPKKRGLAPIECYNRISGALFTNDKFQVSTNKLTFMDLELKLKDKNTLFTRILNGQEQRMKIDREFALWLKDCHEKYDKQIKFTLFK

Variants of: B1
Assay: native PAGE; parent: 0.098; read off a plot

Variant	screen value
GHRTVYLFDRREKESELGDRPLQVGERSDYAGFRACVCQTLGISPEEKFVITTTSRKEITCDNFDETVKDGVTLYLLQSVNQLLLTATKERIDFLPHYDTLVKSGMYEYYASEGQNPLPFALAELIDNSLSATSRNIGVRRIQIKLLFDETQGKPAVAVIDNGRGMTSKQLNNWAVYRLSKFTRQGDFESDHSGYVRPVPVPRSLNSDISYFGVGGKQAVFFVGQSARMISKPADSQDVHELVLSKEDFEKKEKNKEAIYSGYIRNRKPSDSVHITNDDERFLHHLIIEEKEKDSFTAVVITGVQPEHIQYLKNYFHLWTRRLAHIYHYYIHGPKGNEIRTSKEVEPFNNIDIEISMFEKGKVPKIVNLREIQDDMQTLYVNTAADSFEFKAHVEGDGVVEGIIRYHPFLYDRETYPDDPCFPSKLKDEDDEDDCFILEKAARGKRPIFECFWNGRLIPYTSVEDFDWCTPPKKRGLAPIECYNRISGALFTNDKFQVSTNKLTFMDLELKLKDKNTLFTRILNGQEQRMKIDREFALWLKDCHEKYDKQIKFTLFK [chain 1 Q322R]	~0.11
GHRTVYLFDRREKESELGDRPLQVGERSDYAGFRACVCQTLGISPEEKFVITTTSRKEITCDNFDETVKDGVTLYLLQSVNQLLLTATKERIDFLPHYDTLVKSGMYEYYASEGQNPLPFALAELIDNSLSATSRNIGVRRIQIKLLFDETQGKPAVAVIDNGRGMTSKQLNNWAVYRLSKFTRQGDFESDHSGYVRPVPVPRSLNSDISYFGVGGKQAVFFVGQSARMISKPADSQDVHELVLSKEDFEKKEKNKEAIYSGYIRNRKPSDSVHITNDDERFLHHLIIEEKEKDSFTAVVITGVQPEHIQYLKNYFHLWTRQLAHIYHYYIHGPKGNEIRTSKEVEPFNNIDIEISMFEKGKVPKIVNLREIQDDMQTLYVNTAADSFEFKAHVEGDGVVEGIIRYHPFLYDRETYPDDPCFPSKLKDEDDEDDCFILEKAARGKRPIFQCFWNGRLIPYTSVEDFDWCTPPKKRGLAPIECYNRISGALFTNDKFQVSTNKLTFMDLELKLKDKNTLFTRILNGQEQRMKIDREFALWLKDCHEKYDKQIKFTLFK [chain 1 E450Q]	~0.12
GHRTVYLFDRREKESELGDRPLQVGERSDYAGFRACVCQTLGISPEEKFVITTTSRKEITCDNFDETVKDGVTLYLLQSVNQLLLTATKERIDFLPHYDTLVKSGMYEYYASEGQNPLPFALAELIDNSLSATSRNIGVRRIQIKLLFDETQGKPAVAVIDNGRGMTSKQLNNWAVYRLSKFTRQGDFESDHSGYVRPVPVPRSLNSDISYFGVGGKQAVFFVGQSARMISKPADSQDVHELVLSKEDFEKKEKNKEAIYSGYIRNRKPSDSVHITNDDERFLHHLIIEEKEKDSFTAVVITGVQPEHIQYLKNYFHLWTRQLAHIYHYYIHGPKGNEIRTSKEVEPFNNIDIEISMFEKGKVPKIVNLREIQDDMQTLYVNTAADSFEFKAHVEGDGVVEGIIRYHPFLYDRETYPDDPCFPSKLKDEDDEDDCFILEKAARGKRPIFGCFWNGRLIPYTSVEDFDWCTPPKKRGLAPIECYNRISGALFTNDKFQVSTNKLTFMDLELKLKDKNTLFTRILNGQEQRMKIDREFALWLKDCHEKYDKQIKFTLFK [chain 1 E450G]	~0.2
GHRTVYLFDRREKESELGDRPLQVGERSDYAGFRACVCQTLGISPEEKFVITTTSRKEITCDNFDETVKDGVTLYLLQSVNQLLLTATKERIDFLPHYDTLVKSGMYEYYASEGQNPLPFALAELIDNSLSATSRNIGVRRIQIKLLFDETQGKPAVAVIDNGRGMTSKQLNNWAVYRLSKFTRQGDFESDHSGYVRPVPVPRSLNSDISYFGVGGKQAVFFVGQSARMISKPADSQDVHELVLSKEDFEKKEKNKEAIYSGYIRNRKPSDSVHITNDDERFLHHLIIEEKEKDSFTAVVITGVQPEHIQYLKNYFHLWTRQLARIYHYYIHGPKGNEIRTSKEVEPFNNIDIEISMFEKGKVPKIVNLREIQDDMQTLYVNTAADSFEFKAHVEGDGVVEGIIRYHPFLYDRETYPDDPCFPSKLKDEDDEDDCFILEKAARGKRPIFECFWNGRLIPYTSVEDFDWCTPPKKRGLAPIECYNRISGALFTNDKFQVSTNKLTFMDLELKLKDKNTLFTRILNGQEQRMKIDREFALWLKDCHEKYDKQIKFTLFK [chain 1 H325R]	~0.12
GHRTVYLFDRREKESELGDRPLQVGERSDYAGFRACVCQTLGISPEEKFVITTTSRKEITCDNFDETVKDGVTLYLLQSVNQLLLTATKERIDFLPHYDTLVKSGMYEYYASEGQNPLPFALAELIDNSLSATSRNIGVRRIQIKLLFDETQGKPAVAVIDNGRGMTSKQFNNWAVYRLSKFTRQGDFESDHSGYVRPVPVPRSLNSDISYFGVGGKQAVFFVGQSARMISKPADSQDVHELVLSKEDFEKKEKNKEAIYSGYIRNRKPSDSVHITNDDERFLHHLIIEEKEKDSFTAVVITGVQPEHIQYLKNYFHLWTRQLAHIYHYYIHGPKGNEIRTSKEVEPFNNIDIEISMFEKGKVPKIVNLREIQDDMQTLYVNTAADSFEFKAHVEGDGVVEGIIRYHPFLYDRETYPDDPCFPSKLKDEDDEDDCFILEKAARGKRPIFECFWNGRLIPYTSVEDFDWCTPPKKRGLAPIECYNRISGALFTNDKFQVSTNKLTFMDLELKLKDKNTLFTRILNGQEQRMKIDREFALWLKDCHEKYDKQIKFTLFK [chain 1 L171F]	~0.008
GHRTVYLFDRREKESELGDRPLQVGERSDYAGFRACVCQTLGISPEEKFVITTTSRKEITCDNFDETVKDGVTLYLLQSVNQLLLTATKERIDFLPHYDTLVKSGMYEYYASEGQNPLPFALAELIDNSLSATSRNIGVRRIQIKLLFDETQGKPAVAVIDNGRGMTSKQLNNWAVYRLSKFTRQGDFESDHSGYVRPVPVPRSLNSDISYFGVGGKQAVFFVGQSARMISKPADSQDVHELVLSKEDFEKKEKNKEAIYSGYIRNRKPSDSVHITNDDERFLHHLIIEEKEKDSFTAVVITGVQPEHIQYLKNYFHLWTRQLAHIYHYYIHGPKGNEIRTSKEVEPFNNIDIEISMFEKGKVPKIVNLREIQDDMQTLYVNTAADSFEFKAHVEGDGVVEGIIRYHPFLYDRETYPDDPCFPSKLKDEDDEDDCFILEKAARGKRPIFECFWNGRLIPYTSVEDFDWCTPPKKRGLAPIECYNRISGALFTNDKFQVSKNKLTFMDLELKLKDKNTLFTRILNGQEQRMKIDREFALWLKDCHEKYDKQIKFTLFK [chain 1 T500K]	~0.11
GHRTVYLFDRREKESELGDRPLQVGERSDYAGFRACVCQTLGISPEEKFVITTTSRKEITCDNFDETVKDGVTLYLLQSVNQLLLTATKERIDFLPHYDTLVKSGMYEYYASEGQHPLPFALAELIDNSLSATSRNIGVRRIQIKLLFDETQGKPAVAVIDNGRGMTSKQLNNWAVYRLSKFTRQGDFESDHSGYVRPVPVPRSLNSDISYFGVGGKQAVFFVGQSARMISKPADSQDVHELVLSKEDFEKKEKNKEAIYSGYIRNRKPSDSVHITNDDERFLHHLIIEEKEKDSFTAVVITGVQPEHIQYLKNYFHLWTRQLAHIYHYYIHGPKGNEIRTSKEVEPFNNIDIEISMFEKGKVPKIVNLREIQDDMQTLYVNTAADSFEFKAHVEGDGVVEGIIRYHPFLYDRETYPDDPCFPSKLKDEDDEDDCFILEKAARGKRPIFECFWNGRLIPYTSVEDFDWCTPPKKRGLAPIECYNRISGALFTNDKFQVSTNKLTFMDLELKLKDKNTLFTRILNGQEQRMKIDREFALWLKDCHEKYDKQIKFTLFK [chain 1 N116H]	~0.093
GHRTVYLFDRREKESELGDRPLQVGERSDYAGFRACVCQTLGISPEEKFVITTTSRKEITCDNFDETVKDGVTLYLLQSVNQLLLTATKERIDFLPHYDTLVKSGMYEYYASEGQNPLPFALAELIDNSLSATSRNIGVRRIQIKLLFDETQGKPAVAVIDNGRGMTSKQLNNWAVYRLSKFTRQGDFESDHSGYVRPVPVPRSLNSDISYFGVGGKQAVFFVGQSARMISKPADSQDVHELVLSKEDFEKKEKNKEAICSGYIRNRKPSDSVHITNDDERFLHHLIIEEKEKDSFTAVVITGVQPEHIQYLKNYFHLWTRQLAHIYHYYIHGPKGNEIRTSKEVEPFNNIDIEISMFEKGKVPKIVNLREIQDDMQTLYVNTAADSFEFKAHVEGDGVVEGIIRYHPFLYDRETYPDDPCFPSKLKDEDDEDDCFILEKAARGKRPIFECFWNGRLIPYTSVEDFDWCTPPKKRGLAPIECYNRISGALFTNDKFQVSTNKLTFMDLELKLKDKNTLFTRILNGQEQRMKIDREFALWLKDCHEKYDKQIKFTLFK [chain 1 Y260C]	~0.012
GHRTVYLFDRREKESELGDRPLQVGERSDYAGFRACVCQTLGISPEEKFVITTTSRKEITCDNFDETVKDGVTLYLLQSVNQLLLTATKERIDFLPHYDTLVKSGMYEYYACEGQNPLPFALAELIDNSLSATSRNIGVRRIQIKLLFDETQGKPAVAVIDNGRGMTSKQLNNWAVYRLSKFTRQGDFESDHSGYVRPVPVPRSLNSDISYFGVGGKQAVFFVGQSARMISKPADSQDVHELVLSKEDFEKKEKNKEAIYSGYIRNRKPSDSVHITNDDERFLHHLIIEEKEKDSFTAVVITGVQPEHIQYLKNYFHLWTRQLAHIYHYYIHGPKGNEIRTSKEVEPFNNIDIEISMFEKGKVPKIVNLREIQDDMQTLYVNTAADSFEFKAHVEGDGVVEGIIRYHPFLYDRETYPDDPCFPSKLKDEDDEDDCFILEKAARGKRPIFECFWNGRLIPYTSVEDFDWCTPPKKRGLAPIECYNRISGALFTNDKFQVSTNKLTFMDLELKLKDKNTLFTRILNGQEQRMKIDREFALWLKDCHEKYDKQIKFTLFK [chain 1 S112C]	~0.096
GHRTVYLFDRREKESELGDRPLQVGERSDYAGFRACVCQTLGISPEEKFVITTTSRKEITCDNFDETVKDGVTLYLLQSVNQLLLTATKERIDFLPHYDTLVKSGMYEYYASEGQNPLPFALAELIDNSLSATSRNIGVRRIQIKLLFDETQGKPAVAVIDNGRGMTSKQLNNWAVYRLSKFTRQGDFESDHSGYVRPVPVPRSLNSDISYFGVGGKQAVFFVGQSARMISKPADSQDVHELVLSKEDFEKKEKNKEAIYSGYIRNRKPSDSVHITNDDERFLHHLIIEEKEKDSFTAVVITGVQPEHIQYLKNYFHLWTRQLAHIYHYYIHGPKGNEIRTSKEVEPFNNIDIEISMFEKGKVPKIVNLREIQDDMQTLYVNTAADSFEFKAHVEGDGVVEGIIRYHPFLYDRETYPDDPCFPSKLKDEDDEDDCFILEKAARGKRPIFECFWNERLIPYTSVEDFDWCTPPKKRGLAPIECYNRISGALFTNDKFQVSTNKLTFMDLELKLKDKNTLFTRILNGQEQRMKIDREFALWLKDCHEKYDKQIKFTLFK [chain 1 G455E]	~0.01
GHRTVYLFDRREKESELGDRPLQVGERSDYAGFRACVCQTLGISPEEKFVITTTSRKEITCDNFDETVKDGVTLYLLQSVNQLLLTATKERIDFLPHYDTLVKSGMYEYYASEEQNPLPFALAELIDNSLSATSRNIGVRRIQIKLLFDETQGKPAVAVIDNGRGMTSKQLNNWAVYRLSKFTRQGDFESDHSGYVRPVPVPRSLNSDISYFGVGGKQAVFFVGQSARMISKPADSQDVHELVLSKEDFEKKEKNKEAIYSGYIRNRKPSDSVHITNDDERFLHHLIIEEKEKDSFTAVVITGVQPEHIQYLKNYFHLWTRQLAHIYHYYIHGPKGNEIRTSKEVEPFNNIDIEISMFEKGKVPKIVNLREIQDDMQTLYVNTAADSFEFKAHVEGDGVVEGIIRYHPFLYDRETYPDDPCFPSKLKDEDDEDDCFILEKAARGKRPIFECFWNGRLIPYTSVEDFDWCTPPKKRGLAPIECYNRISGALFTNDKFQVSTNKLTFMDLELKLKDKNTLFTRILNGQEQRMKIDREFALWLKDCHEKYDKQIKFTLFK [chain 1 G114E]	~0.15
